Source: IntAct's records for PubMed 23446637

B1: IQ calmodulin-binding motif-containing protein 1 (Homo sapiens), Q15051 (parent)
chain: MKPTGTDPRILSIAAEVAKSPEQNVPVILLKLKEIINITPLGSSELKKIKQDIYCYDLIQYCLLVLSQDYSRIQGGWTTISQLTQILSHCCVGLEPGEDAEEFYNELLPSAAENFLVLGRQLQTCFINAAKAEEKDELLHFFQIVTDSLFWLLGGHVELIQNVLQSDHFLHLLQADNVQIGSAVMMMLQNILQINSGDLLRIGRKALYSILDEVIFKLFSTPSPVIRSTATKLLLLMAESHQEILILLRQSTCYKGLRRLLSKQETGTEFSQELRQLVGLLSPMVYQEVEEQKLHQAACLIQAYWKGFQTRKRLKKLPSAVIALQRSFRSKRSKMLLEINRQKEEEDLKLQLQLQRQRAMRLSRELQLSMLEIVHPGQVEKHYREMEEKSALIIQKHWRGYRERKNFHQQRQSLIEYKAAVTLQRAALKFLAKCRKKKKLFAPWRGLQELTDARRVELKKRVDDYVRRHLGSPMSDVVSRELHAQAQERLQHYFMGRALEERAQQHREALIAQISTNVEQLMKAPSLKEAEGKEPELFLSRSRPVAAKAKQAHLTTLKHIQAPWWKKLGEESGDEIDVPKDELSIELENLFIGGTKPP

Variants of: B1
Details: with ce290_human CEP290, O15078
Sequence of ce290_human CEP290, O15078 (O15078 whole entry): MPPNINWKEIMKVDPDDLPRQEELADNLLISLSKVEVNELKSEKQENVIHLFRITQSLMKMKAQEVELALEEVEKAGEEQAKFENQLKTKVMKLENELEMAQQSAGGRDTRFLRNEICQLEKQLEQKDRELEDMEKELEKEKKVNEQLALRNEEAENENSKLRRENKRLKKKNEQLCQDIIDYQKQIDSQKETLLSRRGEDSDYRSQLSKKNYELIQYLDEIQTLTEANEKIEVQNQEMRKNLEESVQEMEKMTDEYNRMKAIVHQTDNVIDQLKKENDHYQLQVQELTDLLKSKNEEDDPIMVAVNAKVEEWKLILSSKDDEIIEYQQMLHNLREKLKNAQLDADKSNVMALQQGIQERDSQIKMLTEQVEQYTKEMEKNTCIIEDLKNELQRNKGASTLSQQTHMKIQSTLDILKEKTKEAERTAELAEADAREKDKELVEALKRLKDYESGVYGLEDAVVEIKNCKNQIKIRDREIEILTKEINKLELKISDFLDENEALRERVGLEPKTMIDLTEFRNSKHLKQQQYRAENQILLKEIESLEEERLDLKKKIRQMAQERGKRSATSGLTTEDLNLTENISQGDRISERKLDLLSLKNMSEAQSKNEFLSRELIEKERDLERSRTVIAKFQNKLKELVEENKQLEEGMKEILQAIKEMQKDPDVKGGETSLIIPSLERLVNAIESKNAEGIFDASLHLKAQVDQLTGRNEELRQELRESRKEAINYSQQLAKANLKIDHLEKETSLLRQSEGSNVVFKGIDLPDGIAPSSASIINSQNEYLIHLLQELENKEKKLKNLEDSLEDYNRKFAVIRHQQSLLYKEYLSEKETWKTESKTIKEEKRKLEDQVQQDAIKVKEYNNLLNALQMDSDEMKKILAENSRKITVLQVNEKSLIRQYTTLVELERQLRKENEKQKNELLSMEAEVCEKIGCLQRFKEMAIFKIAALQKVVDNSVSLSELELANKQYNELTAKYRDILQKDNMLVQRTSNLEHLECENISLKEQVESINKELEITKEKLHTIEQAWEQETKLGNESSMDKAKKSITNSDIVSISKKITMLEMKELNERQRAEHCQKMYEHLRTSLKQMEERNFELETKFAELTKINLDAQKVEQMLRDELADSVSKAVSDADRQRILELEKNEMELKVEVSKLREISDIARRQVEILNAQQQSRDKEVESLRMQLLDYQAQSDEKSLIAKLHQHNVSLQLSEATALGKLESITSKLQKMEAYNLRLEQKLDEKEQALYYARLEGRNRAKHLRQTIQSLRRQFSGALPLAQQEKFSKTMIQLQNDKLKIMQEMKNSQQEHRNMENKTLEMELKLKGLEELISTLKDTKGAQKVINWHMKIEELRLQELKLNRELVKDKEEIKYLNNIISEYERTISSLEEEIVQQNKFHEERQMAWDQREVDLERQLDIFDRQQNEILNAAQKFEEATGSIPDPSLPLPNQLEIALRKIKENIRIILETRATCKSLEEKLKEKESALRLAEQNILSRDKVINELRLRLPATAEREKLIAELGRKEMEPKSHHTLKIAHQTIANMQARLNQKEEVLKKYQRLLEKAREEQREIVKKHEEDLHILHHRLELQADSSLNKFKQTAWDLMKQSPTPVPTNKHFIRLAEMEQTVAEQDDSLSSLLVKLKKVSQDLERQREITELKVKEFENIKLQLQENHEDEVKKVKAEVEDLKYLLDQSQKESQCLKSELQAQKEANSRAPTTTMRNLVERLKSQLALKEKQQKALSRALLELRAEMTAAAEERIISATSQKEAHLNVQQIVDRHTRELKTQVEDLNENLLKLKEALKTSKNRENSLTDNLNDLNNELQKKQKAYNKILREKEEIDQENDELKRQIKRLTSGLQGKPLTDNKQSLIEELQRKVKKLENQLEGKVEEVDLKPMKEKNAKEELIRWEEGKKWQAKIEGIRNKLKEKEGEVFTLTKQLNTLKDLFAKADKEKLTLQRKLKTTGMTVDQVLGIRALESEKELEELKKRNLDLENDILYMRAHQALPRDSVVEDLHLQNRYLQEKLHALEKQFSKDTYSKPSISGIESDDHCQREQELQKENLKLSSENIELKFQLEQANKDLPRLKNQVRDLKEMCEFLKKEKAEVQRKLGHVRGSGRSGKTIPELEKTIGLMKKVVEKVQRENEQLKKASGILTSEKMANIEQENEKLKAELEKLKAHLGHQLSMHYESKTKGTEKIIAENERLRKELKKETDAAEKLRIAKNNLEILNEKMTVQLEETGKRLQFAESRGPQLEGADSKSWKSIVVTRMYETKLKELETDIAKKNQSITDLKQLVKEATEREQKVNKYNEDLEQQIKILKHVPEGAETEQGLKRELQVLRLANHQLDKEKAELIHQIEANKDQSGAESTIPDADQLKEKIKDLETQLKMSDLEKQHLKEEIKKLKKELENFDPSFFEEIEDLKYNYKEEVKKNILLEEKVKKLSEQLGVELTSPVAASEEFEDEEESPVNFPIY

Row | effect of a mutation on the interaction | Variant
1 | disrupting interaction | A549K
